{"source": "patent US10465005B2", "about": "“JAML specific binding agents, antibodies, and uses related thereto” (Emory University, priority 2011, dated 2019)", "molecules": {"B1": {"name": "DW100: monoclonal anti-human JAML antibody (IgG1,κ), hybridoma ATCC PTA-13051; VH SEQ ID NO:19, VL SEQ ID NO:22 (antibody, V domains shown)", "VH": "DVQLVESGAELVRPGASKLSCKALAYTFTDYEMHWVKQTPVHGLEWIGIIHPGSGGTVYNQKFKGKATLTADKSSSTAYMELSSLTSEDSTVYYCTRRRYYGSSYNWYFDVWGAGN", "VL": "VLTQSPASLAASVGETVTITCRASENIYYSLAWYQQKQGKSPQLLIYNANSLEDGVPSRFSGSGSGTQYSLKINSMQPEDTATYFCEQTYDVPLTFGAGTKLEL"}}, "biological_target": "T1, JAML D1 domain (Homo sapiens, UniProt Q86YT9)", "T1 construct": "made in house; host or cells: HEK293T", "T1 sequence (Q86YT9 20-140)": "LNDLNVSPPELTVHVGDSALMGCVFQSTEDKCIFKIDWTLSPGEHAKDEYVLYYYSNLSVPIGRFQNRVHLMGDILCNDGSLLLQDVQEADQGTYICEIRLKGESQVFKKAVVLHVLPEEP", "assay": "Domain specificity ELISA on sJAML-His, sJAML.D1-Fc, sJAML.D2-Fc", "format": "binding", "conditions": "sJAML.D2-Fc coated, FIG. 1B", "procedure": "FIG. 1B. sJAML-His and purified soluble, mutant fragments of JAML, tagged with rabbit Fc (membrane distal Ig loop: sJAML.D1-Fc and membrane proximal Ig loop: sJAML.D2-Fc) were coated on Immulon II microtiter wells overnight at 4° C. After blocking and washing, antibodies were added to wells for 1 hour and the assay developed with HRP conjugated goat anti mouse Ig (H+L). After addition of ABTS, microtiter wells were analyzed in a microtiter plate reader at 405 nm wavelength. M3 is polyclonal mouse serum collected from the sJAML-His immunized mouse before the fusion. 9E10 anti Myc was used as control.\nTo determine the domain specificity of monoclonal antibodies, soluble full length JAML.D1D2-His (sJAML-His), truncated extracellular fragments: soluble membrane distal fragment JAML.D1-Fc (sJAML.D1-Fc), and soluble membrane proximal fragment JAML.D2-Fc (sJAML.D2-Fc), both tagged with rabbit Fc, were generated and tested for antibody binding. […] Polyclonal serum (M3) was collected from the immunized mouse prior the fusion and was used as the positive control in the binding assay.", "note": "Entries after “also recorded” stand apart in the source; their conditions may differ."}
{"molecule": "B1", "values": [{"measurement": "JAML domain bound", "result": "binds the D1 domain of JAML; also recorded: specifically binds JAML D1 domain"}]}
